Assay [1] addresses HSPB1ACD (α-crystallin domain of HSPB1) (human). The assay is described as follows: native MS.
The target of assay [2] is HSPB5ACD (α-crystallin domain of HSPB5) (human). In words: native MS.

pKd: −log10 of the molar value.

What is called pKd is the negative decadic logarithm of the Kd, by convention in mol/L. Low readings indicate a high Kd, high ones a low Kd. With “HSPB1 C-terminal peptide (cognate peptide of HSPB1ACD)”, the negative logarithm of the Kd (pKd) in assay [1] is greater than 4.00.

In turn, “HSPB5 C-terminal peptide (cognate peptide of HSPB5ACD)” had a pKd in assay [2] greater than 4.00.
